This note sets out measurements from US20250180556A1 (ECOLE POLYTECHNIQUE FEDERALE DE LAUSANNE EPFL, published 2025).

Assay [1] deals with T1, glutathione S-transferase (GST)-HmtA chimeric construct, biotinylated in vivo (Methanobrevibacter smithii, biotinylated in vivo by bacteria at the N-terminus (GST) end).
T1 construct: The construct was immobilised on coated polystyrene plates; also called GCJ construct; HmtA containing construct; not shown: glutathione S-transferase (GST)
The assay can be described thus: ELISA, biotinylated GST-HmtA immobilised on coated plates. The procedure: (§1) The binding properties of all antibodies were tested by ELISA. A glutathione S-transferase (GST)-HmtA chimeric construct was prepared and further biotinylated in vivo by bacteria at the N-terminus (GST) end of the HmtA construct (GCJ construct). The construct was immobilized in coated polystyrene plates. A control chimeric GST construct (GCH) lacking HmtA was prepared, biotinylated and immobilized analogously.
A general note: ELISA stands for enzyme-linked immunosorbent assay.

Assay [2] deals with T1, glutathione S-transferase (GST)-HmtA …. The assay can be described thus: ELISA (figure legend). The procedure:
as §1

T1 sequence (chain, as listed by the source mutant): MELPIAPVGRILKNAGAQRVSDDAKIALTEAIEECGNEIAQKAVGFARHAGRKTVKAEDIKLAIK

B1: scFv of monoclonal antibody mAb2 (N-VH-linker-VL-C) (scFv)
scFv: EVQLVQSGAEVKKPGESLKISCKGSGYSFTSYWIGWVRQMPGKGLEWMGIIYPGDSDTRYSPSFQGQVTISADKSISTAYLQWSSLKASDTAMYYCARLATGPHGIASAGRRYLDYWGQGTLVTVSSGGGGSGGGGSGGGGSTQSVLTQPPSVSAAPGQKVTISCSGSSSNIGNNYVSWYQQLPGTAPKLLIYDNNKRPSGIPDRFSGSKSGTSATLGITGLQTGDEADYYCGTWDSRGFGVFGGGTKLTVLG
notes: Selected from the Tomlinson I,J human scFv library (pIT2 vector); also called scFv based on mAb2
As to B1, in assay [1], the binding result is “binds”.

B2: scFv of monoclonal antibody mAb1 (N-VH-linker-VL-C) (scFv)
scFv: EVQLVQSGAEVKKPGESLKISCKGSGYSFTSYWIGWVRQMPGKGLEWMGIIYPGDSDTRYSPSFQGQVTISADKSISTAYLQWSSLKASDTAMYYCARAGFRGYCSGGSCYRLPYWGQGTLVTVSSGGGGSGGGGSGGGGSTQSVLTQPPSVSAAPGQKVTISCSGSSSNIGNNYVSWYQQLPGTAPKLLIYDNNKRPSGIPDRFSGSKSGTSATLGITGLQTGDEADYYCGTWDVLAARSVFGGGTKLTVLG
notes: Selected from the Tomlinson I,J human scFv library (pIT2 vector); also called scFv based on mAb1
For the molecule B2, in assay [1], the binding result was “binds”.

B3: scFv of monoclonal antibody mAb5 (N-VH-linker-VL-C) (scFv)
scFv: EVQLVQSGAEVKKPGESLKISCKGSGYSFTSYWIGWVRQMPGKGLEWMGIIYPGDSDTRYSPSFQGQVTISADKSISTAYLQWSSLKASDTAMYYCARAKVGQRYSSGRYFFDYWGQGTLVTVSSGGGGSGGGGSGGGGSTEIVLTQSPATLSLSPGERATLSCRASQSVSSYLAWYQQKPGQAPRLLIYDASNRATGIPARFSGSGSGTDFTLTISSLEPEDFAVYYCQQGAKDNPMTFGQGTKVEIKR
notes: Selected from the Tomlinson I,J human scFv library (pIT2 vector); also called scFv based on mAb5
Turning to B3, the binding result in assay [2] is reported as “binds”.
